Earlier results in article PMC3367028.

Molecular target: CD74 (Homo sapiens) (UniProt P04233)
Experiment: SPR

UniProt P04233, sequence (P04233 73-296): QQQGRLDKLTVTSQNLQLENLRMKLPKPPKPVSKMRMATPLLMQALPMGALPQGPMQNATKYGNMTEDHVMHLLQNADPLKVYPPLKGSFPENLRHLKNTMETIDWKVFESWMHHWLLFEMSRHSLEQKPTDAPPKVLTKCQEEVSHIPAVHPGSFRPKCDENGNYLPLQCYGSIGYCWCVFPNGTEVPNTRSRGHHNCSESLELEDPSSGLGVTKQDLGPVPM

- Kd: 5.42 nM
Substance: D-DT (from UniProt P30046)
